Consider three molecules from paper doi:10.1101/2022.10.13.511954 (bioRxiv, 2022).

Where two headings read alike, the source gives them in different places.

Experiment [1] concerns the target T1, (MBP)2-WRC, human WAVE regulatory complex (human, UniProt Q7L576 1-1253; Q9Y2A7 1-1128; Q92558 1-178; Q9NYB9 1-158; Q8WUW1 1-75). Nature of the experiment: pull-down.
Experiment [2] concerns the target T1, (MBP)2-WRC, human WAVE regulatory …. Nature of the experiment: pull-down. The source holds these as a separate data set.

B1: GST-tagged cytoplasmic domain of DCC (GST-DCC^cyto) (domain or fragment, human, UniProt P43146 1123-1447, looked up)
chain: RRSSAQQRKKRATHSAGKRKGSQKDLRPPDLWIHHEEMEMKNIEKPSGTDPAGRDSPIQSCQDLTPVSHSQSETQLGSKSTSHSGQDTEEAGSSMSTLERSLAARRAPRAKLMIPMDAQSNNPAVVSAIPVPTLESAQYPGILPSPTCGYPHPQFTLRPVPFPTLSVDRGFGAGRSQSVSEGPTTQQPPMLPPSQPEHSSSEEAPSRTIPTACVRPTHPLRSFANPLLPPPMSAIEPKVPYTPLLSQPGPTLPKTHVKTASLGLAGKARSPLLPVSVPTAPEVSEESHKPTEDSANVYEQDDLSEQMASLEGLMKQLNAITGSAF
For the molecule B1, in experiment [1], the binding result is recorded as “binds”.

B2: GST-DCC^R1343H-cyto (domain or fragment, human, UniProt P43146 1123-1447, looked up)
chain: RRSSAQQRKKRATHSAGKRKGSQKDLRPPDLWIHHEEMEMKNIEKPSGTDPAGRDSPIQSCQDLTPVSHSQSETQLGSKSTSHSGQDTEEAGSSMSTLERSLAARRAPRAKLMIPMDAQSNNPAVVSAIPVPTLESAQYPGILPSPTCGYPHPQFTLRPVPFPTLSVDRGFGAGRSQSVSEGPTTQQPPMLPPSQPEHSSSEEAPSRTIPTACVRPTHPLHSFANPLLPPPMSAIEPKVPYTPLLSQPGPTLPKTHVKTASLGLAGKARSPLLPVSVPTAPEVSEESHKPTEDSANVYEQDDLSEQMASLEGLMKQLNAITGSAF
As for B2, the binding result in experiment [2] was “binds”.

B3: GST-DCC^ΔWIRS-cyto (domain or fragment, human, UniProt P43146 1123-1447, looked up)
chain: RRSSAQQRKKRATHSAGKRKGSQKDLRPPDLWIHHEEMEMKNIEKPSGTDPAGRDSPIQSCQDLTPVSHSQSETQLGSKSTSHSGQDTEEAGSSMSTLERSLAARRAPRAKLMIPMDAQSNNPAVVSAIPVPTLESAQYPGILPSPTCGYPHPQFTLRPVPFPTLSVDRGFGAGRSQSVSEGPTTQQPPMLPPSQPEHSSSEEAPSRTIPTACVRPTHPLRAAANPLLPPPMSAIEPKVPYTPLLSQPGPTLPKTHVKTASLGLAGKARSPLLPVSVPTAPEVSEESHKPTEDSANVYEQDDLSEQMASLEGLMKQLNAITGSAF
Turning to B3, the binding result in experiment [2] was “binds”.
